Measurements from doi:10.1101/2022.02.20.481182 (bioRxiv, 2022).
Values belong to the binder of their own block, whether it stands above or below them. No end group written: not given here.

B1: BRPF2 bromodomain, wild-type, N-terminal His6-tagged (domain or fragment)
chain: EQVAMELRLTPLTVLLRSVLDQLQDKDPARIFAQPVSLKEVPDYLDHIKHPMDFATMRKRLEAQGYKNLHEFEEDFDLIIDNCMKYNARDTVFYRAAVRLRDQGGVVLRQARREVDSIGLEEASGMHLPERPA

Experiments:
Assay in all cases: ITC
[1] = target: histone H4K12ac (1-15) peptide (UniProt P62805 2-16, acetyl-lysine at K12)
[2] = target: histone H4K8acK12ac (1-15) peptide (UniProt P62805 2-16, acetyl-lysine at K8 and K12)
[3] = target: histone H4K5ac (1-15) peptide (UniProt P62805 2-16, acetyl-lysine at K5)
[4] = target: histone H4K5acK12ac (1-15) peptide (UniProt P62805 2-16, acetyl-lysine at K5 and K12)
[5] = target: histone H4K8ac (1-15) peptide (UniProt P62805 2-16, acetyl-lysine at K8)
[6] = target: histone H4K5acK8ac (1-15) peptide (UniProt P62805 2-16, acetyl-lysine at K5 and K8)
[7] = target: B1

Binder: B1
Kd [1]: 18.2 ± 1.2 µM | Kd [2]: 44.7 ± 3.5 µM | Kd [3]: 3.5 ± 0.4 µM | Kd [4]: 3.2 ± 0.1 µM | Kd [5]: 6.2 ± 0.6 µM | Kd [6]: 28.5 ± 1.6 µM

binding result [3]: binds
B2: BRPF2 bromodomain I586F mutant (domain or fragment)
chain: EQVAMELRLTPLTVLLRSVLDQLQDKDPARFFAQPVSLKEVPDYLDHIKHPMDFATMRKRLEAQGYKNLHEFEEDFDLIIDNCMKYNARDTVFYRAAVRLRDQGGVVLRQARREVDSIGLEEASGMHLPERPA

Kd [7]: 10.2 ± 0.2 µM
Binder: KSTGGK(Ac)APRKQ (peptide, UniProt P68431 10-20, looked up) [histone H3K14ac (9-19) peptide]

Kd [7]: 20.5 ± 1.4 µM
Binder: GKGGAK(Ac)RHRKV (peptide, UniProt P62805 12-22, looked up) [histone H4K16ac (11-21) peptide]
